Target: the molecule itself
Assay: crystal structure

B1: SrpA sialoglycan binding region (SrpABR), tag cleaved, as crystallised (domain or fragment)
chain: RRATDTTPPTITVPSDIIAYRGEEFEFYFEITDDSGQVKNIELSTFGKPLGLNWLEYSEDNFNVPGNATSDNPLRVRVHGTVPLNEPIPADKNRAQFTRTIRAWDAAGNVSSNITFVIKYRAQTDKYNPADPTITYVDRLSSLSPSEKNAVEAAVRAANPQIPAAARITVSANGTVTITYPDSSTDTITANRVVKDLASSR
  stoichiometry N: 2

— paper PMC5388602 (Biochemistry, 2016)
